Experimental data from patent US20210139568A1 (AXON NEUROSCIENCE, published 2021).
Where no end group is shown, it is not given here. [ ]: non-standard residue; d: D form. pT = C[C@@H](OP(=O)(O)O)[C@H](N)C(=O)O

B1: synthetic phosphopeptide tau 210-219/pT212/pT217 (peptide)
peptide: SR[pT]PSLP[pT]PP
B2: synthetic peptide tau 181-210 (peptide)
peptide: TPPSSGEPPKSGDRSGYSSPGSPGTPGSRS
B3: antibody DC807 (antibody, V domains shown)
VH: EVKLVESGGGLVKPGGSLKLSCAASGFTFSNYAMSWVRQNPEKRLEWVASISSGGTIYSPDSVKGRFTISRDNGRNILYLQMSSLRSEDTAMYSCARVNYDYGYAMDYWGQGTSVTVS
VL: DAVMTQTPLSLPVSLGDQASISCRSSQSLENSNGNTYLNWYLQKPGQSPQLLIYRVSNRFSGVLDRFSGSGSGTDFTLKISRVEAEDLGVYFCLQVTHVPWTFGGGTKLEIKR
notes: Mouse monoclonal antibody
B4: synthetic phosphopeptide tau 210-218/pT212/pT217 (peptide)
peptide: SR[pT]PSLP[pT]P
B5: synthetic phosphopeptide tau 210-220/pT212/pT217 (peptide)
peptide: SR[pT]PSLP[pT]PPT
B6: synthetic peptide tau 171-200 (peptide)
peptide: IPAKTPPAPKTPPSSGEPPKSGDRSGYSSP
B7: synthetic peptide tau 161-190 (peptide)
peptide: GQKGQANATRIPAKTPPAPKTPPSSGEPPK
B8: monoclonal antibody DC2E2 (antibody, V domains shown)
VH: EVQLQQSGAELVRPGALVKLSCKASGFNIKDYYMHWVRQRPDQGLEWIGWLDPENDHTIYDPRFQDRANLTADTSSNTAYLQLSSLTSEDTAVYYCSYYKYDDYWGQGTTLTVS
VL: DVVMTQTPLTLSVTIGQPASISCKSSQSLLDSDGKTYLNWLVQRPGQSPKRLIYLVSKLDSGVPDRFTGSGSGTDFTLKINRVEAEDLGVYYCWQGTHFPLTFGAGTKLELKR
notes: Used as hybridoma supernatant or Protein G purified; biotinylated as detector in the digital ELISA
B9: antibody DC149 (antibody, V domains shown)
VH: DVQLVESGGGLVQPGGSRKLSCAASGFTLSSFGMHWVRQAPEKGLEWVAYISSGSSTIYYADTVKGRFTISRDNPKNILFLQMTSLRSEDTAIYYCSRRLDYWGQGTSVTVS
VL: DIVITQDELSNPVTSGESVSISCRSSKSLLYKDGKTYLNWFLQRPGQSPQLLIYLMSTRASGVSDRFSGSGSGTDFTLEISRVKAEDVGVYYCQQFVEYPLTFGTGTKLELQR
notes: Mouse monoclonal antibody
B10: synthetic peptide tau 141-170 (peptide)
peptide: KAKGADGKTKIATPRGAAPPGQKGQANATR

Legend:
[1] = target: T1, monoclonal antibody DC2E7; experiment: competition ELISA, peptide pre-incubated with DC2E7
T1 construct: also called DC217 (apparent misprint)
T1 sequence (VL, as listed by the source): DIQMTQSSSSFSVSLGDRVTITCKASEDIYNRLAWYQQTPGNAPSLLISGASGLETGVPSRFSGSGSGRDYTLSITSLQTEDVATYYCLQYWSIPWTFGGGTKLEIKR
Method: In order to examine the effect of residues in the region of DC2E7 epitope on antibody binding, synthetic peptides of different lengths carrying different phospho-sites were analyzed in competitive ELISA. […] Each synthetized peptide contained phospho-site(s) located around the residue Thr217, except of unphosphorylated peptide tau 201-229 (used as negative control).
ELISA plates (Nunc Medisorp, Thermo Scientific, Denmark) were coated overnight at 37° C. with 50 μl/well of PHF-tau, diluted 200× in PBS. The coated plates were washed 5 times with PBS/Tween 20 (0.05% v/v), and blocked with PBS/Tween 20 for 1 h at 25° C. Each of the peptides was separately dissolved in PBS at a final concentration of 1 mM. Serial dilutions (2.5×) of peptides in PBS/Tween 20 were prepared in polypropylene microtiter plates with conical well bottom (Greiner) within the concentration range of 200 μM; 80 μM; 32 μM; 12.8 μM; 5.12 μM; 2.048 μM; 0.8192 μM; 0.32768 μM). The monoclonal antibody DC2E7 was diluted to a concentration of 0.6 μg/ml in PBS and 60 μl of this diluted antibody was added into each well to serial dilution of peptides resulting in 120 μl/well of mixture. The antibody/peptide mixtures were incubated for 1 hr at 25° C. on a rotating platform set to 230 rpm.

[2] = target: B8; experiment: competition ELISA, peptide pre-incubated with DC2E2, plates coated with tau 1-242
Method: (§1) The plates were washed 4 times with PBS/Tween 20 (0.1% v/v), and blocked with PBS/Tween 20 for 2 h at 25° C. Peptides were separately dissolved in PBS at a final concentration of 5 mM. Serial dilutions (2,5-fold) of the peptides in PBS/Tween 20 were prepared in polypropylene plates with conical well bottom (Greiner, #651201) (concentration range 200 μM, 32 μM, 12.8 μM, 5.1 μM, 2 μM, 0.8 μM, and 0.3 μM). 60 μl of each dilution were added per well. Purified DC2E2 was diluted to a concentration of 0.6 μg/ml in PBS/Tween 20 and 60 μl of this diluted antibody was mixed with each serial dilution of peptides resulting in 120 μl mixtures with […] of antibody/60μl containing each respective test peptide at a concentration of 200 μM, 32 μM, 12.8 μM, 5.1 μM, 2 μM, 0.8 μM, and 0.3 μM. The antibody/peptide mixtures were incubated for 1 hr at 25° C. on a rotating platform set to 250 rpm. […] The plates were washed 4× times with PBS/Tween 20 and incubated for 1 hr at 25° C. on a rotating platform (set to 250 rpm) with 50 μl of Polyclonal Goat Anti-Mouse Immunoglobulins/HRP (Dako, #P0447) diluted 1:1000 in PBS/Tween 20. The plates were washed 4× times with PBS/Tween and then incubated with 50 μl/well of TMB one solution (Kem-En-Tec Diagnostics) as a peroxidase substrate. The reaction was stopped by adding 50 μl of 2 M H₂SO₄ (Merck). Absorbance was measured at 450 nm using a Powerwave HT (Bio-Tek).

[3] = target: unphosphorylated tau protein (UniProt P10636-8 1-441, limits assumed); experiment: ELISA
unphosphorylated tau protein, sequence (P10636 other isoform, or with tags, fused parts or gaps limits assumed): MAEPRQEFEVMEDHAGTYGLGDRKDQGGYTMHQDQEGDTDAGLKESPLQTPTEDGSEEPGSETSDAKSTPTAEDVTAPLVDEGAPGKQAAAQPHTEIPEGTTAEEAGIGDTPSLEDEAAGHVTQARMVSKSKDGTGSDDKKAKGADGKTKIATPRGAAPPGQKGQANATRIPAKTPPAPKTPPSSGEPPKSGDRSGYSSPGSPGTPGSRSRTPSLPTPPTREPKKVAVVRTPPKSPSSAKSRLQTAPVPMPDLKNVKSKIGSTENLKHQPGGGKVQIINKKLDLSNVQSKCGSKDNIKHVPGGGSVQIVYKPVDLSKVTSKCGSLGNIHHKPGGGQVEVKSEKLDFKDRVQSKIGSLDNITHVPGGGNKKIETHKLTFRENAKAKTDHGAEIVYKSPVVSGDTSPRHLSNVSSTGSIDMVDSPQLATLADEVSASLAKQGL

[4] = target: B8; experiment: competition ELISA, peptide 0.3-200 µM pre-incubated with DC2E2, plates coated with tau 1-242
Method: as §1

[5] = target: in vitro phosphorylated tau151-391 (human, UniProt P10636 468-708, phosphorylated in vitro with rat brain kinase extract; the phosphorylated sites are not listed); experiment: immunoblot
in vitro phosphorylated tau151-391, sequence (P10636 468-708 I625L): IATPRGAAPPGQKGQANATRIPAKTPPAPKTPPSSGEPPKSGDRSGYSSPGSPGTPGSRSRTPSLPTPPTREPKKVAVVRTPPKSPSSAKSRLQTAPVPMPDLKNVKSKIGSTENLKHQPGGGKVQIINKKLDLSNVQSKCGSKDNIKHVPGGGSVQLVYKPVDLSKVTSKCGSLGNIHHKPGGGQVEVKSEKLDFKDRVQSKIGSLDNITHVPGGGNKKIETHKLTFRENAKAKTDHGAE
Method: (§2) Adult rat brain (1 g/2.5 ml) was homogenized in kinase buffer (10 mM TRIS-HCl, pH 7.4; 5 mM EGTA, 2 mM DTT; 1 mM PMSF; 2 mM MgCl₂, leupeptin ([…]), pepstatin ([…]), aprotinin ([…])) and after centrifugation at 100,000×g for 30 min at 4° C. the supernatant (kinase extract) was used for the phosphorylation of tau. The phosphorylation reaction was carried out at 37° C. in 10 mM TRIS-HCl, pH 7.4; 5 mM EGTA, 2 mM DTT; 1 mM PMSF; leupeptin (20 μg/ml); pepstatin (20 μg/ml); aprotinin (20μg/ml); 2 mM ATP; 2 mM MgCl₂ and 10 μM okadaic acid. The brain kinase extract (5μl) was added to 50 μl tau solution (1 μM) and reaction was incubated at 37° C. for 24 h. The phosphorylation of tau was analysed by SDS-PAGE and immunoblotting using rabbit anti-serum raised against six recombinant human tau isoforms (Csokova et al., Rapid purification of truncated tau proteins: model approach to purification of functionally active fragments of disordered proteins, implication for neurodegenerative diseases, Protein Expression and Purification, 35:366-372, 2004).
(§3) Soluble tau proteins were diluted with an equal volume of 2×SDS (sodium dodecylsulfate) sample loading buffer (with β-mercaptoethanol) (Laemmli, 1970) and 250 ng of proteins were loaded per lane. […]

[6] = target: T2, in vitro phosphorylated human tau 2N4R (human, UniProt P10636 1-758, phosphorylated in vitro with rat brain kinase extract; the phosphorylated sites are not listed); experiment: immunoblot
T2 construct: also called phosphorylated tau 2N4R; 2N4R in vitro phosphorylated
T2 sequence (P10636 other isoform, or with tags, fused parts or gaps limits assumed): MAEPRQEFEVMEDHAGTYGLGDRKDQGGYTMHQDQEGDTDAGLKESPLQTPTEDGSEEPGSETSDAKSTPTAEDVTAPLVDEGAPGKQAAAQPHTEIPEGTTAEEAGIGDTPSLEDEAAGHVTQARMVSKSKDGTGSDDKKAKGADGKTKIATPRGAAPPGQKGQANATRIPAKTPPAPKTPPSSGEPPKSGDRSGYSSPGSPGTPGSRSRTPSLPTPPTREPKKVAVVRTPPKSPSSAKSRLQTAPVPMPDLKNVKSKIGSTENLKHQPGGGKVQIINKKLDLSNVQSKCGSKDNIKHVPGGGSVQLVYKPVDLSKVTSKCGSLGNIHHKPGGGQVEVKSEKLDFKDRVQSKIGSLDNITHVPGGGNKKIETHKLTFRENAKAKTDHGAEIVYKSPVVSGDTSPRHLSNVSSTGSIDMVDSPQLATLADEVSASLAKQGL
Method: as §2, §3

[7] = target: recombinant tau deletion mutant tau 1-226 (human, UniProt P10636 1-543); experiment: ELISA, coated recombinant tau protein, hybridoma supernatant
recombinant tau deletion mutant tau 1-226, sequence (P10636 other isoform, or with tags, fused parts or gaps mutant): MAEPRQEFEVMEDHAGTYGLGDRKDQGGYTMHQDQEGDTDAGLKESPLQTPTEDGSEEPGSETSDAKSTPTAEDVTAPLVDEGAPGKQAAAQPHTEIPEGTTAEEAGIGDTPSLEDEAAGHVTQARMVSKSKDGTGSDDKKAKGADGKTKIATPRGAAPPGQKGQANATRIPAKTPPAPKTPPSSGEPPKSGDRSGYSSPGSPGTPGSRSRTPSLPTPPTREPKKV
Method: (§4) Deletion mutants of human tau protein 2N4R were used for epitope mapping of DC2E2 using ELISA (FIG. 2A). Recombinant human tau isoforms 2N4R, 1N4R, 2N3R, 0N4R, 1N3R, 0N3R and tau deletion mutants were prepared as described in Example 1. Microtiter plates were coated overnight at 37° C. with recombinant tau proteins ([…] in PBS, 50 μl/well). The plates were blocked with PBS-Tween20 (0.1% v/v) to reduce nonspecific binding and were incubated with 50 μl/well of DC2E2 hybridoma culture supernatant, for 1 hr at 37° C. Bound monoclonal antibody was detected with sheep anti-mouse Ig HRP-conjugated (DAKO). The reaction was developed with TMB one solution (Kem-En-Tec Diagnostics) as a peroxidase substrate and stopped with 50 μl of 2M H₂SO₄. Absorbance was measured at 450 nm using a Powerwave HT (Bio-Tek). Readouts with an absorbance value of at least twice the value of the negative controls (PBS) were considered positive.

[8] = target: recombinant truncated tau151-391 (unphosphorylated) (human, UniProt P10636 468-708); experiment: as above
recombinant truncated tau151-391 (unphosphorylated), sequence (P10636 468-708 I625L): as the sequence (P10636 468-708 I625L) above
Method: as §4

[9] = target: T3, recombinant human tau isoform 0N3R (human, UniProt P10636-2 2-352); experiment: as above
T3 construct: mature
Method: as §4

[10] = target: T4, recombinant human tau isoform 2N3R (human, UniProt P10636-5 2-410); experiment: as above
T4 construct: mature
T4 sequence (P10636 other isoform, or with tags, fused parts or gaps): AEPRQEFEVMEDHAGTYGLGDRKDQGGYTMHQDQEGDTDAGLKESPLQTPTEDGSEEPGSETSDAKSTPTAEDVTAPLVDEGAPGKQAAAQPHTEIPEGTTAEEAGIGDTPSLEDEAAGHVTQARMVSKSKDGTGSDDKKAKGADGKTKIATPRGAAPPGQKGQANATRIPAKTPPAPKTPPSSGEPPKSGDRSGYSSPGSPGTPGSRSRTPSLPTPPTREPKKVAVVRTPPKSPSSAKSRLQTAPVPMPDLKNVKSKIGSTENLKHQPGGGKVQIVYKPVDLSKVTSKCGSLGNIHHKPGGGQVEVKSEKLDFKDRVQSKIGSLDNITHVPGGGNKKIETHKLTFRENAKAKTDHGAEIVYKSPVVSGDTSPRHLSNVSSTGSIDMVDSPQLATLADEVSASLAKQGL
Method: as §4

[11] = target: recombinant tau deletion mutant tau 99-441 (human, UniProt P10636 99-758); experiment: as above
recombinant tau deletion mutant tau 99-441, sequence (P10636 other isoform, or with tags, fused parts or gaps mutant): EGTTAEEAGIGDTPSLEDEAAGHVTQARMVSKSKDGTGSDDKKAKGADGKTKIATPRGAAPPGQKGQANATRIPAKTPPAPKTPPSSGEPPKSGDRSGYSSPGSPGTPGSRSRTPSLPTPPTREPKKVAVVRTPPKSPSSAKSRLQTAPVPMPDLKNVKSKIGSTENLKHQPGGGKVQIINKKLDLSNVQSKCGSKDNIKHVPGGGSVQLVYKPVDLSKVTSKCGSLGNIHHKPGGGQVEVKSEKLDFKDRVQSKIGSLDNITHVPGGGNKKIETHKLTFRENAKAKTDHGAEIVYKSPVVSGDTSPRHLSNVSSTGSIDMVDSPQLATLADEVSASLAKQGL
Method: as §4

[12] = target: recombinant tau deletion mutant tau 31-441 (human, UniProt P10636 31-758); experiment: as above
recombinant tau deletion mutant tau 31-441, sequence (P10636 other isoform, or with tags, fused parts or gaps mutant): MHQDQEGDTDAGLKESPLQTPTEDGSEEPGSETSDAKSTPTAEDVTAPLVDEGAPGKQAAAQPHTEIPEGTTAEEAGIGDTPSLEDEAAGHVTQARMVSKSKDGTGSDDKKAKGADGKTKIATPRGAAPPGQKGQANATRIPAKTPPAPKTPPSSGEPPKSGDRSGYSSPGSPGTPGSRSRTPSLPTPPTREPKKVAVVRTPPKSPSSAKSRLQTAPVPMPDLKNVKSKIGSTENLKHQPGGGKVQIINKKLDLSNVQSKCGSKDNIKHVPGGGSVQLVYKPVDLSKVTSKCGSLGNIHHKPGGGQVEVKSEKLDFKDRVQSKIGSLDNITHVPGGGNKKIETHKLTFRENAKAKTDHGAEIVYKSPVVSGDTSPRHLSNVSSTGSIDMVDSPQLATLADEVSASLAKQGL
Method: as §4

[13] = target: T5, recombinant human tau isoform 0N4R (human, UniProt P10636-6 2-383); experiment: as above
T5 construct: mature
Method: as §4

[14] = target: recombinant tau deletion mutant tau 127-441 (human, UniProt P10636 378-758); experiment: as above
recombinant tau deletion mutant tau 127-441, sequence (P10636 other isoform, or with tags, fused parts or gaps mutant): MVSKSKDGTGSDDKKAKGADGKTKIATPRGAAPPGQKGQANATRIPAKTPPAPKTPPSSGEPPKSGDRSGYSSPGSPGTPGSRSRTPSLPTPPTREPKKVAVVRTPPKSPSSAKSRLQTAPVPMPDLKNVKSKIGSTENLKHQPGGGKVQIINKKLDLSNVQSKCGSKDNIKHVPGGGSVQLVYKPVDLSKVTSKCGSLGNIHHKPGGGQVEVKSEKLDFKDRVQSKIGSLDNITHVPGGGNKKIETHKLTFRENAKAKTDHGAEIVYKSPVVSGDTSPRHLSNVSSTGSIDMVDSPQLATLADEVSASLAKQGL
Method: as §4

[15] = target: T6, recombinant human tau isoform 1N4R (human, UniProt P10636-7 2-412); experiment: as above
T6 construct: mature
T6 sequence (P10636 other isoform, or with tags, fused parts or gaps): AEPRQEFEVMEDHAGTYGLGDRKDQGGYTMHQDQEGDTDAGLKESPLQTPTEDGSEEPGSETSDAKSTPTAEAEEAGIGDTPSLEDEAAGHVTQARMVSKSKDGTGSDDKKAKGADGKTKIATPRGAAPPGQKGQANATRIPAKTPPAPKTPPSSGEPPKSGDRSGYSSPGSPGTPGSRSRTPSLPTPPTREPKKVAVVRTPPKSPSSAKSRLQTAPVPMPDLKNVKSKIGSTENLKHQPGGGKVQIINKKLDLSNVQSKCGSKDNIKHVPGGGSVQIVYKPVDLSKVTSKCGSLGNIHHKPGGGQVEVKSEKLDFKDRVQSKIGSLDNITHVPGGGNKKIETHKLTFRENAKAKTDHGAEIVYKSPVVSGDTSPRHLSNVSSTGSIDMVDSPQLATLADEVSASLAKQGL
Method: as §4

[16] = target: T7, recombinant human tau isoform 1N3R (human, UniProt P10636-4 2-381); experiment: as above
T7 construct: mature
Method: as §4

[17] = target: T8, recombinant tau deletion mutant tau 1-242 (human, UniProt P10636 1-559); experiment: hybridoma screening ELISA on coated tau 1-242
T8 construct: Numbered on tau 2N4R; It was the immunogen for DC2E2
T8 sequence (P10636 other isoform, or with tags, fused parts or gaps mutant): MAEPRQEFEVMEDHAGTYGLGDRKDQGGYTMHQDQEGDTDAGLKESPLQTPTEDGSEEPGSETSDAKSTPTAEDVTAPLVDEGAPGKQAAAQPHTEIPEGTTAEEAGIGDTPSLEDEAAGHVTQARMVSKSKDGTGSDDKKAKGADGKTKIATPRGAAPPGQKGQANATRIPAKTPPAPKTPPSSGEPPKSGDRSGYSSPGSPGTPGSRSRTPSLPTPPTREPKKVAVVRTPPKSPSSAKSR
Method: The plates were blocked with 1% nonfat dried milk to reduce nonspecific binding, washed with PBS-0.05% Tween 20, and incubated with 50 μl/well of hybridoma culture supernatant for 1 hr at 37° C. Bound monoclonal antibodies were detected with sheep anti-mouse immunoglobulin (Ig) conjugated with horse radish peroxidase (HRP, DAKO). The reaction was developed with TMB one (Kem-En-Tec Diagnostics) as a peroxidase substrate and stopped with 50 μl of 2 M H₂SO₄. Absorbance at 450 nm was measured using a Powerwave HT (Bio-Tek). Readouts with an absorbance value of at least twice the value of the negative controls (PBS) were considered positive. Positive hybridoma cultures were further subcloned in soft agar according to the procedure described in Kontsekova et al., One-step method for establishing 8-azaguanine-resistant hybridomas suitable for preparation of triomas, J. Immunol. Methods, 145, 247-250 (1991).

[18] = target: recombinant tau deletion mutant tau 221-441 (unphosphorylated) (human, UniProt P10636 538-758); experiment: ELISA, coated recombinant tau proteins, DC2E2 hybridoma supernatant
recombinant tau deletion mutant tau 221-441 (unphosphorylated), sequence (P10636 other isoform, or with tags, fused parts or gaps mutant): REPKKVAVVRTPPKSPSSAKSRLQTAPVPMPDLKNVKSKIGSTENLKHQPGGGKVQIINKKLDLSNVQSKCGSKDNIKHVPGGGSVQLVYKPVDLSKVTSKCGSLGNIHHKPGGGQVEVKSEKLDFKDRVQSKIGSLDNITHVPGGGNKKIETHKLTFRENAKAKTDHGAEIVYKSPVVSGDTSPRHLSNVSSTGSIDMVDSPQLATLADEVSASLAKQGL
Method: as §4

[19] = target: recombinant tau deletion mutant tau 1-136 (human, UniProt P10636 1-387); experiment: as above
recombinant tau deletion mutant tau 1-136, sequence (P10636 other isoform, or with tags, fused parts or gaps mutant): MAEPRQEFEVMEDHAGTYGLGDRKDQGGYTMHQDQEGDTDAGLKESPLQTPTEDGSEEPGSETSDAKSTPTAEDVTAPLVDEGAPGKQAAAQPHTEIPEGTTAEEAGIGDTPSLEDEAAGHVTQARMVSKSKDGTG
Method: as §4

[20] = target: T9, recombinant tau deletion mutant tau2N4RΔ(134-168) (human, UniProt P10636 1-758); experiment: as above
T9 construct: Tau 2N4R with residues 134-168 deleted; also called tau 2N4R(A134-168)
T9 sequence (P10636 other isoform, or with tags, fused parts or gaps mutant): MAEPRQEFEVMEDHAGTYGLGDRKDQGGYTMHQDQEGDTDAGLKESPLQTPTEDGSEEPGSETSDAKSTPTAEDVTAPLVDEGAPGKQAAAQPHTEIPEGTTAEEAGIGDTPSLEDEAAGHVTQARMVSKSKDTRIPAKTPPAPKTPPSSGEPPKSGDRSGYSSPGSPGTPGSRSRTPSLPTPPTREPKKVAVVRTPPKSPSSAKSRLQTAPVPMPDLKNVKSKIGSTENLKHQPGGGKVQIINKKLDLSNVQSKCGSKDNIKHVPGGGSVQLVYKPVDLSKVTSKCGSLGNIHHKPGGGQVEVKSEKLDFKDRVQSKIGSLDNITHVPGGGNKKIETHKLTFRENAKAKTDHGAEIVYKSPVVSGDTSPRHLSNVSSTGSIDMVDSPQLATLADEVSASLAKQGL
Method: as §4

Q: Does B1 bind [1]?
A: Result: no binding (tested: peptide up to 200 µM)

Q: Does B2 bind [2]?
A: Result: no binding (tested: peptide up to 200 µM)

Q: Does B3 bind [3]?
A: Result: no binding

Q: Does B4 bind [1]?
A: Result: no binding (tested: peptide up to 200 µM)

Q: Does B5 bind [1]?
A: Result: no binding (tested: peptide up to 200 µM)

Q: Does B6 bind [2]?
A: Result: no binding (tested: peptide up to 200 µM)

Q: Does B7 bind [4]?
A: Result: binds

Q: Does B8 bind [5]?
A: Result: binds

Q: Does B8 bind [6]?
A: Result: binds

Q: Does B8 bind [7]?
A: Result: binds

Q: Does B8 bind [8]?
A: Result: binds

Q: Does B8 bind [9]?
A: Result: binds

Q: Does B8 bind [10]?
A: Result: binds

Q: Does B8 bind [11]?
A: Result: binds

Q: Does B8 bind [12]?
A: Result: binds

Q: Does B8 bind [13]?
A: Result: binds

Q: Does B8 bind [14]?
A: Result: binds

Q: Does B8 bind [15]?
A: Result: binds

Q: Does B8 bind [16]?
A: Result: binds

Q: Does B8 bind [17]?
A: Result: binds

Q: Does B8 bind [18]?
A: Result: no binding

Q: Does B8 bind [19]?
A: Result: no binding

Q: Does B8 bind [20]?
A: Result: no binding

Q: Does B9 bind [3]?
A: Result: no binding

Q: Does B10 bind [2]?
A: Result: no binding (tested: peptide up to 200 µM)
